Test results: article PMC11789017, “Preventing inappropriate signals pre- and post-ligand perception by a toggle switch mechanism of ERECTA” (Proceedings of the National Academy of Sciences of the …, 2025)
One block for each molecule: values may come before it.

B1: MBP-fused full-length ER cytoplasmic domain (MBP-ER_CD) (domain or fragment, Arabidopsis, UniProt Q42371 602-976, looked up)
chain: CRPHNPPPFLDGSLDKPVTYSTPKLVILHMNMALHVYEDIMRMTENLSEKYIIGHGASSTVYKCVLKNCKPVAIKRLYSHNPQSMKQFETELEMLSSIKHRNLVSLQAYSLSHLGSLLFYDYLENGSLWDLLHGPTKKKTLDWDTRLKIAYGAAQGLAYLHHDCSPRIIHRDVKSSNILLDKDLEARLTDFGIAKSLCVSKSHTSTYVMGTIGYIDPEYARTSRLTEKSDVYSYGIVLLELLTRRKAVDDESNLHHLIMSKTGNNEVMEMADPDITSTCKDLGVVKKVFQLALLCTKRQPNDRPTMHQVTRVLGSFMLSEQPPAATDTSATLAGSCYVDEYANLKTPHSVNCSSMSASDAQLFLRFGQVISQNSE
notes: ERECTA (ER) receptor kinase, Arabidopsis, cytoplasmic domain (juxtamembrane domain, kinase domain and C-terminal tail); source: recombinant, expressed and purified; not shown: MBP, N-terminal, kept

Legend:
[1] = target: GST-PUB30 (U-box E3 ligase PUB30) (UniProt Q058P4); assay: BLI; recombinantly purified GST-BKI1 or GST-PUB30 and MBP-ER_CD variants at seven concentrations (156.25, 312.5, 625, 1,250, 2,500, 5,000 and 10,000 nM); three independent experiments; who was immobilised is in SI Appendix
[2] = target: GST-BKI1 (BRI1 KINASE INHIBITOR 1) (UniProt Q9FMZ0); assay: as above
[3] = target: T1, GST-PUB30 (U-box E3 ligase PUB30) (UniProt Q058P4 1-448); assay: as above; conditions: both partners purified
T1 construct: plant U-box (PUB) E3 ubiquitin ligase PUB30; Tag end from the order of the printed name; source: recombinantly purified; not shown: GST, N-terminal, kept
T1 sequence (looked up): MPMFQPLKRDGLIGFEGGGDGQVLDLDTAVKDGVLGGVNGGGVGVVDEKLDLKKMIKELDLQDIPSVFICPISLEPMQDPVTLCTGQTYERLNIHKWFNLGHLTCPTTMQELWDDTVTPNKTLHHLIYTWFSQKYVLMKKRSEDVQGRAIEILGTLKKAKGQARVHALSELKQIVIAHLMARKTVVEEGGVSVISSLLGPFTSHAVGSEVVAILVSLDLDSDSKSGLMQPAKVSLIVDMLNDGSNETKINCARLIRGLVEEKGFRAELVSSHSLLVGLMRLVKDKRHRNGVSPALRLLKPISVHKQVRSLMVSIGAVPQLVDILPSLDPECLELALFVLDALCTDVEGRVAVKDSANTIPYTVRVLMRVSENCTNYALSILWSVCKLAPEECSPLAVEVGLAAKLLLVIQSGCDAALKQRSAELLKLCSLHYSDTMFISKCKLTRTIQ

[4] = target: T2, MBP-ER_CD_(T/S8E), phosphomimetic version (Arabidopsis, UniProt Q42371 602-976, Thr947 (T/S8E) | Ser950 (T/S8E) | Ser954 (T/S8E) | Ser955 (T/S8E) | Ser957 …); assay: BLI
T2 sequence: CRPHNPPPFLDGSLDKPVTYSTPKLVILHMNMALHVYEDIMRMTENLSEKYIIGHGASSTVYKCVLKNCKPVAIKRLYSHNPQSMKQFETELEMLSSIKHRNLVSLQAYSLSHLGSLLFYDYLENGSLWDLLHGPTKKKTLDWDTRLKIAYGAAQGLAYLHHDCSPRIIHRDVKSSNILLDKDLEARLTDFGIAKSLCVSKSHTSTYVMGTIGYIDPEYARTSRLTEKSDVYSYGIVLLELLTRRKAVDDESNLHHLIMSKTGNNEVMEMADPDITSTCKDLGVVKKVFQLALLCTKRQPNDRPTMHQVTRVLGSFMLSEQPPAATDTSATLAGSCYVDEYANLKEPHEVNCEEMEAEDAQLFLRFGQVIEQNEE

[5] = target: T3, MBP-ER_CD_(T/S8A), phosphonull version (Arabidopsis, UniProt Q42371 602-976, Thr947 (T/S8A) | Ser950 (T/S8A) | Ser954 (T/S8A) | Ser955 (T/S8A) | Ser957 …); assay: BLI
T3 sequence: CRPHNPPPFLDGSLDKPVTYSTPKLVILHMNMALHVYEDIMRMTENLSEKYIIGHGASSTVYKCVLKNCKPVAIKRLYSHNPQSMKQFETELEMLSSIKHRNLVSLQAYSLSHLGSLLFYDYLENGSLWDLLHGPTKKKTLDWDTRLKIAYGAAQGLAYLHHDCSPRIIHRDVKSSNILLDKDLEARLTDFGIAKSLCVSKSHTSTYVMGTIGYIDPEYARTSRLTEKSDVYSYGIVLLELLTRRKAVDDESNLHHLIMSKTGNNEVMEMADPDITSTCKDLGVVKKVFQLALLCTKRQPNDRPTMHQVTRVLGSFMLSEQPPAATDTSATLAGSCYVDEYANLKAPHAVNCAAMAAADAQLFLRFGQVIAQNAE

[6] = target: T4, MBP-ER_CD_(T/S8A), phosphonull version (Arabidopsis, UniProt Q42371 602-976, Thr947 (T/S8A) | Ser950 (T/S8A) | Ser954 (T/S8A) | Ser955 (T/S8A) | Ser957 …); assay: BLI; recombinantly purified GST-BKI1 or GST-PUB30 and MBP-ER_CD variants at seven concentrations (156.25, 312.5, 625, 1,250, 2,500, 5,000 and 10,000 nM); three independent experiments; who was immobilised is in SI Appendix; conditions: both partners purified
T4 construct: ERECTA (ER), Arabidopsis, cytoplasmic domain with the eight phosphosites of the C-terminal tail changed to alanine; Tag end from the order of the printed name; source: recombinant, purified; not shown: MBP, N-terminal, kept
T4 sequence (looked up): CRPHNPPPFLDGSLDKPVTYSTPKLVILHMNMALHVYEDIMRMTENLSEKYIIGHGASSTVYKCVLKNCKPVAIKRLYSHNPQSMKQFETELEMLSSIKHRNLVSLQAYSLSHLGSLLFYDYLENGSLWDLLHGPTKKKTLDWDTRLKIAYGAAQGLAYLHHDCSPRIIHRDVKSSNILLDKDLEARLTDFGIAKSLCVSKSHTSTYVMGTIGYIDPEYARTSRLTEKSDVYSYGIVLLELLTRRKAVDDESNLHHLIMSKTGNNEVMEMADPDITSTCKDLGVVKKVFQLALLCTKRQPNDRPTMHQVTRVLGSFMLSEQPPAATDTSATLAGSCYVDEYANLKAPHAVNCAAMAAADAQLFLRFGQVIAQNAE

[7] = target: B1; assay: as above; conditions: both partners purified

Molecule: B1
- Kd [3]: 0.393 ± 0.048 µM

B2: MBP-ER_CD_(T/S8E), phosphomimetic version (domain or fragment, Arabidopsis, UniProt Q42371 602-976, looked up)
chain: CRPHNPPPFLDGSLDKPVTYSTPKLVILHMNMALHVYEDIMRMTENLSEKYIIGHGASSTVYKCVLKNCKPVAIKRLYSHNPQSMKQFETELEMLSSIKHRNLVSLQAYSLSHLGSLLFYDYLENGSLWDLLHGPTKKKTLDWDTRLKIAYGAAQGLAYLHHDCSPRIIHRDVKSSNILLDKDLEARLTDFGIAKSLCVSKSHTSTYVMGTIGYIDPEYARTSRLTEKSDVYSYGIVLLELLTRRKAVDDESNLHHLIMSKTGNNEVMEMADPDITSTCKDLGVVKKVFQLALLCTKRQPNDRPTMHQVTRVLGSFMLSEQPPAATDTSATLAGSCYVDEYANLKEPHEVNCEEMEAEDAQLFLRFGQVIEQNEE
notes: ERECTA (ER), Arabidopsis, cytoplasmic domain with the eight phosphosites of the C-terminal tail changed to glutamate; Tag end from the order of the printed name; source: recombinant, purified; not shown: MBP, N-terminal, kept
- binding result [3]: binds

B4: GST-PUB30 (U-box E3 ligase PUB30) (enzyme)
chain: MPMFQPLKRDGLIGFEGGGDGQVLDLDTAVKDGVLGGVNGGGVGVVDEKLDLKKMIKELDLQDIPSVFICPISLEPMQDPVTLCTGQTYERLNIHKWFNLGHLTCPTTMQELWDDTVTPNKTLHHLIYTWFSQKYVLMKKRSEDVQGRAIEILGTLKKAKGQARVHALSELKQIVIAHLMARKTVVEEGGVSVISSLLGPFTSHAVGSEVVAILVSLDLDSDSKSGLMQPAKVSLIVDMLNDGSNETKINCARLIRGLVEEKGFRAELVSSHSLLVGLMRLVKDKRHRNGVSPALRLLKPISVHKQVRSLMVSIGAVPQLVDILPSLDPECLELALFVLDALCTDVEGRVAVKDSANTIPYTVRVLMRVSENCTNYALSILWSVCKLAPEECSPLAVEVGLAAKLLLVIQSGCDAALKQRSAELLKLCSLHYSDTMFISKCKLTRTIQ
- Kd [4]: 0.194 µM
- Kd [5]: 9.5 µM

Now from value to molecule:

- Kd [1]: 0.805 µM
- Kd [2]: 47.7 µM
Molecule: MBP-ER_CD_(ΔCTα-Helix) (domain or fragment)

- Kd [4]: 18 µM
- Kd [5]: 3.8 µM
- binding result [6]: binds
- Kd [7]: 3.7 ± 0.7 µM
B3: GST-BKI1 (BRI1 KINASE INHIBITOR 1) (natural protein, UniProt Q9FMZ0 1-337, looked up)
chain: METNLQQVKNSSQTFSEKQNPKQEASPSPISSTCSSPSHDFSFTISLQPLSSSSKHISPTLRSPSKTTSSYQQTDPFAVDLSPADEIFFHGHLLPLHLLSHLPVSPRTSTGSYNDGFTLPVKDILPDQPTNNNNNTENAITNISTEAKDDNTEDKAEGEIRVKTKPIKSFSLFGLSKWRKGFESNEREQEQQQQKIKKPMSLDLSHAVKKYIRMLFQKRGNGTQFWNRRQTSSYSFSSSLMGPNGNSKTMINGSYNKRDLIRGRRGELFSAPASMRTSPTNSGHLRVSTAGLSSSSGSTSSSSSDSTMEELQAAIQAAIAHCKNSSAVDRDDKVKDS
notes: Tag end from the order of the printed name; source: recombinantly purified; not shown: GST, N-terminal, kept
